Measurements reported in paper PMC2703826.

Molecular target: C-terminal hydrophilic (cytoplasmic) domain of non-structural protein 4 from mouse hepatitis virus strain A59, wild type (mouse hepatitis virus strain A59)
Test: SEC; Superdex75, 50 mM Tris-Cl pH 8.5, 300 mM NaCl (legend: 150 mM NaCl), no reducing agent, 0.5 mL/min; calibrated with marker proteins

With “C-terminal hydrophilic (cytoplasmic) domain of non-structural protein 4 from mouse hepatitis virus strain A59, wild type (domain or fragment)” the stoichiometry N was 2.
